Data on two variants can be found in IntAct's records for PubMed 11742986.

First the molecules themselves.
B1: 26S proteasome regulatory subunit 8 homolog (Saccharomyces cerevisiae), Q01939 (parent)
chain: MTAAVTSSNIVLETHESGIKPYFEQKIQETELKIRSKTENVRRLEAQRNALNDKVRFIKDELRLLQEPGSYVGEVIKIVSDKKVLVKVQPEGKYIVDVAKDINVKDLKASQRVCLRSDSYMLHKVLENKADPLVSLMMVEKVPDSTYDMVGGLTKQIKEIKEVIELPVKHPELFESLGIAQPKGVILYGPPGTGKTLLARAVAHHTDCKFIRVSGAELVQKYIGEGSRMVRELFVMAREHAPSIIFMDEIDSIGSTRVEGSGGGDSEVQRTMLELLNQLDGFETSKNIKIIMATNRLDILDPALLRPGRIDRKIEFPPPSVAARAEILRIHSRKMNLTRGINLRKVAEKMNGCSGADVKGVCTEAGMYALRERRIHVTQEDFELAVGKVMNKNQETAISVAKLFK
partner: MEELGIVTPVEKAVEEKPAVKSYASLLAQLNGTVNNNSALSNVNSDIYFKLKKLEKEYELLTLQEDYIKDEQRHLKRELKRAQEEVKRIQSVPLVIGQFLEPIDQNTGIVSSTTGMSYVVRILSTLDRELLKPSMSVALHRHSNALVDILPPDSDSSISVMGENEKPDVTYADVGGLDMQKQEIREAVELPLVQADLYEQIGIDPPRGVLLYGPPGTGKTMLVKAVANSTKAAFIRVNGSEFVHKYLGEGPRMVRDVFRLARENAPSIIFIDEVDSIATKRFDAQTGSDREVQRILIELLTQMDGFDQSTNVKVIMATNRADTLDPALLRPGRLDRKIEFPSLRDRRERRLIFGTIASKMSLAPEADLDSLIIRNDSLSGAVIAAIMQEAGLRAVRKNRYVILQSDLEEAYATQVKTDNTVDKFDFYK

In the assay the parent is B1. Conditions: with prs6b_yeast RPT3, P33298.
Take K195R: the “effect of a mutation on the interaction” value is “decreasing interaction”. Consider K195S, for which the “effect of a mutation on the interaction” value is listed as “decreasing interaction”.
